The record followed here is article PMC9829383.

This experiment has as its target Ecad ectodomain K14E mutant. The experiment in a line: single-molecule AFM dynamic force spectroscopy.

What is called koff is a measure of how fast the partners let go of each other. Read a low koff as a long-lived complex.

With “Ecad ectodomain K14E mutant (domain or fragment)”, the koff was determined as 0.78 s⁻¹.
